From IntAct's records for PubMed 29128334

B1: Peroxiredoxin-5, mitochondrial (Homo sapiens), P30044 (parent)
chain: MGLAGVCALRRSAGYILVGGAGGQSAAAAARRYSEGEWASGGVRSFSRAAAAMAPIKVGDAIPAVEVFEGEPGNKVNLAELFKGKKGVLFGVPGAFTPGCSKTHLPGFVEQAEALKAKGVQVVACLSVNDAFVTGEWGRAHKAEGKVRLLADPTGAFGKETDLLLDDSLVSIFGNRRLKRFSMVVQDGIVKALNVEPDGTGLTCSLAPNIISQL
B2: Serine/threonine-protein kinase PINK1, mitochondrial (Homo sapiens), Q9BXM7 (parent)
chain: MAVRQALGRGLQLGRALLLRFTGKPGRAYGLGRPGPAAGCVRGERPGWAAGPGAEPRRVGLGLPNRLRFFRQSVAGLAARLQRQFVVRAWGCAGPCGRAVFLAFGLGLGLIEEKQAESRRAVSACQEIQAIFTQKSKPGPDPLDTRRLQGFRLEEYLIGQSIGKGCSAAVYEATMPTLPQNLEVTKSTGLLPGRGPGTSAPGEGQERAPGAPAFPLAIKMMWNISAGSSSEAILNTMSQELVPASRVALAGEYGAVTYRKSKRGPKQLAPHPNIIRVLRAFTSSVPLLPGALVDYPDVLPSRLHPEGLGHGRTLFLVMKNYPCTLRQYLCVNTPSPRLAAMMLLQLLEGVDHLVQQGIAHRDLKSDNILVELDPDGCPWLVIADFGCCLADESIGLQLPFSSWYVDRGGNGCLMAPEVSTARPGPRAVIDYSKADAWAVGAIAYEIFGLVNPFYGQGKAHLESRSYQEAQLPALPESVPPDVRQLVRALLQREASKRPSARVAANVLHLSLWGEHILALKNLKLDKMVGWLLQQSAATLLANRLTEKCCVETKMKMLFLANLECETLCQAALLLCSWRAAL
partner: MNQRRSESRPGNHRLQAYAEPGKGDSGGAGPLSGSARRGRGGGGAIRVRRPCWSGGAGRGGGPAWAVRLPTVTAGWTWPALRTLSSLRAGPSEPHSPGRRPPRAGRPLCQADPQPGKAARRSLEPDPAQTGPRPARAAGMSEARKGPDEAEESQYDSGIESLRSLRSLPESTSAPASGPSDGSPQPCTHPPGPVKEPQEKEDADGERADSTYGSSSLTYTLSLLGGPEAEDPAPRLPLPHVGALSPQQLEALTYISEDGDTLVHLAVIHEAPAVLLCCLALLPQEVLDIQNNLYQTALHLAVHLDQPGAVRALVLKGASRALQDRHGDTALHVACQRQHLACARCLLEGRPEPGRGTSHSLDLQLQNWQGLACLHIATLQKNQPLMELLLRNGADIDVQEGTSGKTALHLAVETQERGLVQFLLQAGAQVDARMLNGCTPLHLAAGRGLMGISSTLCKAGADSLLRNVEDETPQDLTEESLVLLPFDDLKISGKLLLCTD
B3: Dihydrolipoyl dehydrogenase, mitochondrial (Homo sapiens), P09622 (parent)
chain: MQSWSRVYCSLAKRGHFNRISHGLQGLSAVPLRTYADQPIDADVTVIGSGPGGYVAAIKAAQLGFKTVCIEKNETLGGTCLNVGCIPSKALLNNSHYYHMAHGKDFASRGIEMSEVRLNLDKMMEQKSTAVKALTGGIAHLFKQNKVVHVNGYGKITGKNQVTATKADGGTQVIDTKNILIATGSEVTPFPGITIDEDTIVSSTGALSLKKVPEKMVVIGAGVIGVELGSVWQRLGADVTAVEFLGHVGGVGIDMEISKNFQRILQKQGFKFKLNTKVTGATKKSDGKIDVSIEAASGGKAEVITCDVLLVCIGRRPFTKNLGLEELGIELDPRGRIPVNTRFQTKIPNIYAIGDVVAGPMLAHKAEDEGIICVEGMAGGAVHIDYNCVPSVIYTHPEVAWVGKSEEQLKEEGIEYKVGKFPFAANSRAKTNADTDGMVKILGQKSTDRVLGAHILGPGAGEMVNEAALALEYGASCEDIARVCHAHPTLSEAFREANLAASFGKSINF
partner: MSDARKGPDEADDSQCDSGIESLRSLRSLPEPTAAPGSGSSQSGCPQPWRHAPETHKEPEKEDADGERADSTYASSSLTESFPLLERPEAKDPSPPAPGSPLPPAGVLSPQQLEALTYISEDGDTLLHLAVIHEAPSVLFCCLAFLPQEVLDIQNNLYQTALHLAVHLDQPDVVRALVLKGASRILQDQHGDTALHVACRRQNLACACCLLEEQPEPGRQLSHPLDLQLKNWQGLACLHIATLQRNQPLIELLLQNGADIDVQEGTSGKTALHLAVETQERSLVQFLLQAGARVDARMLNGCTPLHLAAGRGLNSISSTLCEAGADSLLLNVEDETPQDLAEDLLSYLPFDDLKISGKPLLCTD

Variants of: B1
Details: with sodc_human SOD1, P00441
sodc_human SOD1, P00441, sequence (P00441 whole entry): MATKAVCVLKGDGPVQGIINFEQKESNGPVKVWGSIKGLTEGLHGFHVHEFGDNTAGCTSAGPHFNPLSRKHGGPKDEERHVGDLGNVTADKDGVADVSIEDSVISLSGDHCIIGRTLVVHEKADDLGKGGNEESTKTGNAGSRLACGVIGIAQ

Row | Variant | effect of a mutation on the interaction
1 | MGLAGVCALRRSAGYILVGGAGGQSAAAAARRYSEGEWASGGVRSFSRAAAAMAPIKVGDAIPAVEVFEGEPGNKVNLAELFKGRKGVLFGVPGAFTPGCSKTHLPGFVEQAEALKAKGVQVVACLSVNDAFVTGEWGRAHKAEGKVRLLADPTGAFGKETDLLLDDSLVSIFGNRRLKRFSMVVQDGIVKALNVEPDGTGLTCSLAPNIISQL [K85R] | disrupting interaction strength
2 | MGLAGVCALRRSAGYILVGGAGGQSAAAAARRYSEGEWASGGVRSFSRAAAAMAPIKVGDAIPAVEVFEGEPGNKVNLAKLFKGKKGVLFGVPGAFTPGCSKTHLPGFVEQAEALKAKGVQVVACLSVNDAFVTGEWGRAHKAEGKVRLLADPTGAFGKETDLLLDDSLVSIFGNRRLKRFSMVVQDGIVKALNVEPDGTGLTCSLAPNIISQL [E80K] | with no effect
3 | MGLAGVCALRRSAGYILVGGAGGQSAAAAARRYSEGEWASGGVRSFSRAAAAMAPIKVGDAIPAVEVFEGEPGNKVNLAELFRGKKGVLFGVPGAFTPGCSKTHLPGFVEQAEALKAKGVQVVACLSVNDAFVTGEWGRAHKAEGKVRLLADPTGAFGKETDLLLDDSLVSIFGNRRLKRFSMVVQDGIVKALNVEPDGTGLTCSLAPNIISQL [K83R] | with no effect

Variants of: B2
Details: with ikbe_human NFKBIE

Row | Variant | effect of a mutation on the interaction
4 | MAVRQALGRGLQLGRALLLRFTGKPGRAYGLGRPGPAAGCVRGERPGWAAGPGAEPRRVGLGLPNRLRFFRQSVAGLAARLQRQFVVRAWGCAGPCGRAVFLAFGLGLGLIEEKQAESRRAVSACQEIQAIFTQKSKPGPDPLDTRRLQGFRLEEYLIGQSIGKGCSPAVYEATMPTLPQNLEVTKSTGLLPGRGPGTSAPGEGQERAPGAPAFPLAIKMMWNISAGSSSEAILNTMSQELVPASRVALAGEYGAVTYRKSKRGPKQLAPHPNIIRVLRAFTSSVPLLPGALVDYPDVLPSRLHPEGLGHGRTLFLVMKNYPCTLRQYLCVNTPSPRLAAMMLLQLLEGVDHLVQQGIAHRDLKSDNILVELDPDGCPWLVIADFGCCLADESIGLQLPFSSWYVDRGGNGCLMAPEVSTARPGPRAVIDYSKADAWAVGAIAYEIFGLVNPFYGQGKAHLESRSYQEAQLPALPESVPPDVRQLVRALLQREASKRPSARVAANVLHLSLWGEHILALKNLKLDKMVGWLLQQSAATLLANRLTEKCCVETKMKMLFLANLECETLCQAALLLCSWRAAL [A168P] | disrupting interaction strength

Variants of: B3
Details: with ikbe_mouse Nfkbie

Row | Variant | effect of a mutation on the interaction
5 | MQSWSRVYCSLAKRGHFNRISHGLQGLSAVPLRTYADQPIDADVTVIGSGPGGYVAAIKAAQLGFKTVCIEKNETLGGTCLNVGCIPSKALLNNSHYYHMAHGKDFASRGIEMSEVRLNLDKMMEQKSTAVKALTGGIAHLFKQNKVVHVNGYGKITGKNQVTATKADGGTQVIDTKNILIATGSEVTPFPGITIDEDTIVSSTGALSLKKVPEKMVVIGAGVIGVELGSVWQRLGADVTAVEFLGHVGGVGIDMEISKNFQRILQKQGFKFKLNTKVTGATKKSDGKIDVSIEAASGGKAEVITCDVLLVCIGRRPFTKNLGLEELGIELDPRGRIPVNTRFQTKIPNIYAIGDVVAGPMLAHKAEDEGIICVEGMAGGAVHIDYNCVPSVIYTHPEVAWVGKSEEQLKEEGIEYKVGKFPFAANSRAKTNADTDGMVKILGQKSTDRVLGAHILGPGAGEMVNEAALALEYGASCEDIARVCHAHPTLAEAFREANLAASFGKSINF [S491A] | disrupting interaction strength
